Reference: paper PMC8291550

target: rat skeletal muscle sodium channel rNaV1.4 (UniProt P15390); test: washing-out time-course analysis (electrophysiology); details: read off a plot
Chain of UniProt P15390 (P15390 whole entry): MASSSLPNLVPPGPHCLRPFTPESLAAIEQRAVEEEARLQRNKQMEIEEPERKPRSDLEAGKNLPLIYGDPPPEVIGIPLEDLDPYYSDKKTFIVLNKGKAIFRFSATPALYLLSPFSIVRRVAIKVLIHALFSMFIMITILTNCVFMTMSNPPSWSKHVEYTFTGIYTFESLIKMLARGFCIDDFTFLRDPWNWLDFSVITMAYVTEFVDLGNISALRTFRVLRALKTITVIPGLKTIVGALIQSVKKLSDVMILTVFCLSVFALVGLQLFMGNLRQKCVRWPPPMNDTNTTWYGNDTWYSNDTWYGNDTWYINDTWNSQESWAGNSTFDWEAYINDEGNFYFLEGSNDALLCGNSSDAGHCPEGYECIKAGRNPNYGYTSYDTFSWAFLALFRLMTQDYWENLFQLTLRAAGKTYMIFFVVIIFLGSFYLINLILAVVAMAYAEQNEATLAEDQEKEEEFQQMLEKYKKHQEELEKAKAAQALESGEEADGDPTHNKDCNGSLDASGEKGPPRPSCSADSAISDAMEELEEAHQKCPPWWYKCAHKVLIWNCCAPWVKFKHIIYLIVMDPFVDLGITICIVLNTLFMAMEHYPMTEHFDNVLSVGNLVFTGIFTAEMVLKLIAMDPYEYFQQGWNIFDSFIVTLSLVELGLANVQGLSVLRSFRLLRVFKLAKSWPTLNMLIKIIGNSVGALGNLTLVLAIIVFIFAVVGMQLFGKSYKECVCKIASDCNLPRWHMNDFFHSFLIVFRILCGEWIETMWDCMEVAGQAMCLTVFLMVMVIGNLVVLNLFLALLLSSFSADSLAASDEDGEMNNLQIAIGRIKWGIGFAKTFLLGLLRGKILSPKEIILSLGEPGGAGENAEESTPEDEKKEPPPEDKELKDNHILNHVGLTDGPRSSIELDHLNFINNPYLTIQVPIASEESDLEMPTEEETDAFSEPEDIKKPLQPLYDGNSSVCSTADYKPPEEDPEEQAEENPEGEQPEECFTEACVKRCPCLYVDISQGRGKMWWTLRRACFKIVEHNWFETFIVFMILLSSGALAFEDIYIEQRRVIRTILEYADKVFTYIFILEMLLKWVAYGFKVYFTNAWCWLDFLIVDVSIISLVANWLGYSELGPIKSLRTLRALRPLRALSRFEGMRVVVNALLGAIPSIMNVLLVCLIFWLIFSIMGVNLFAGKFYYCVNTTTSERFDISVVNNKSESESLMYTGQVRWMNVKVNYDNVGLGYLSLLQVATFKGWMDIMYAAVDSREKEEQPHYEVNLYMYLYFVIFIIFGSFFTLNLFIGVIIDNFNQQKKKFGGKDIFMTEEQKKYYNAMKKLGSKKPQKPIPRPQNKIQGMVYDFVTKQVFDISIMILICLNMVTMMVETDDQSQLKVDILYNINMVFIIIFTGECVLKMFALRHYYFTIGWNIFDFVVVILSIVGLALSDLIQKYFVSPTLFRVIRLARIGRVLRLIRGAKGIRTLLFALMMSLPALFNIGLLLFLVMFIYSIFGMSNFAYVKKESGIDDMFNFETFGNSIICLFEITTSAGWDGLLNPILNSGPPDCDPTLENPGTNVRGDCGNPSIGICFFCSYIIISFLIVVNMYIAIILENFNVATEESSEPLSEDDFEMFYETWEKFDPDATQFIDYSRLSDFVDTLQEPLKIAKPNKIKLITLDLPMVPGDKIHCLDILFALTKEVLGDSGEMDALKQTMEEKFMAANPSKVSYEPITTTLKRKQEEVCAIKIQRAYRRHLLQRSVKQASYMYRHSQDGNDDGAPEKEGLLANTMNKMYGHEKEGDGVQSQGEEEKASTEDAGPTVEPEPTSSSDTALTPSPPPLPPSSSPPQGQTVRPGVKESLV

Substance	other: τoff [s]
BmK-M9 D3G	1900
BmK-M9 D28G	1800
BmK-M9 D53G	1700
BmK-M9 E10G	1700
BmK-M9 E20G	1600
BmK-M9 E32G	1800
BmK-M9 H15G	1500
BmK-M9 H64G	1800
BmK-M9 K8G	1700
BmK-M9 K24G	1800
BmK-M9 K50G	1600
BmK-M9 K62G	8.5
BmK-M9 R2G	1300
BmK-M9 R41G	1700
BmK-M9 R54G	1800
BmK-M9 R58G	2000
BmK-M9 Y42G	17
